In the supplement of paper PMC10567573 one finds protein stability index data, which are given here for 94 variants.

First the molecules themselves.
B1: SETD8 (parent)
chain: FVVEYHGDLIEITDAKKREALYAQ
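Note: lentivirally expressed fusions sorted by FACS into six bins by GFP to DsRed ratio, PSI derived from sequencing read proportions per bin multiplied by bin number.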

The variants in the series derive from B1. Put plainly: protein stability index of a GFP-peptide fusion (GPS, HEK-293T) (PSI 1-6); higher = more stable. The settings on record: c terminus: a fixed tail appended.
For the variant FVVEYHGDLIEHTDAKKREALYAQ, the protein stability index was determined as 2.48.
For FVVEYHGDLIEATDAKKREALYAQ, the protein stability index amounted to 1.98.
For FVVEYHGDLIECTDAKKREALYAQ, the protein stability index is 2.1.
Turning to FVVEYHGDWIEITDAKKREALYAQ, the protein stability index is 1.47.
For the variant FVVEYHGDAIEITDAKKREALYAQ, the protein stability index was 2.31.
On to FVVEYHGDRIEITDAKKREALYAQ, for which the protein stability index was 1.8.
In the case of FVVEYHGDFIEITDAKKREALYAQ, the protein stability index is 3.03.
For the variant FVVEYHGDVIEITDAKKREALYAQ, the protein stability index turned out to be 2.47.
Take FVVEYHGDNIEITDAKKREALYAQ: the protein stability index was determined as 2.86.
As to FVVEYHGDQIEITDAKKREALYAQ, the protein stability index is 2.73.
For FVVEYHGDYIEITDAKKREALYAQ, the protein stability index turned out to be 1.68.
Regarding FVVEYHGDPIEITDAKKREALYAQ, the protein stability index is 2.26.
Take FVVEYHGDCIEITDAKKREALYAQ: the protein stability index was 2.25.
As for FVVEYHGDIIEITDAKKREALYAQ, the protein stability index is 1.59.
Consider FVVEYHGDSIEITDAKKREALYAQ, for which the protein stability index worked out at 1.74.
As for FVVEYHGDEIEITDAKKREALYAQ, the protein stability index was determined as 2.42.
Consider FVVEYHGDDIEITDAKKREALYAQ, for which the protein stability index came to 2.91.
Regarding FVVEYHGDGIEITDAKKREALYAQ, the protein stability index is 1.59.
The value for FVVEYHGDMIEITDAKKREALYAQ was 1.46; that for FVVEYHGDHIEITDAKKREALYAQ was 1.93.
For FVVEYHGDTIEITDAKKREALYAQ, the protein stability index is 2.06.
FVVEYHGDKIEITDAKKREALYAQ: the protein stability index was 2.58.
For the variant FVFEYHGDLIEITDAKKREALYAQ, the protein stability index was 1.51.
With FVCEYHGDLIEITDAKKREALYAQ, the protein stability index worked out at 2.24.
For the variant FVTEYHGDLIEITDAKKREALYAQ, the protein stability index came out at 2.23.
In the case of FVAEYHGDLIEITDAKKREALYAQ, the protein stability index came to 1.81.
On to FVHEYHGDLIEITDAKKREALYAQ, for which the protein stability index was found to be 2.77.
Take FVYEYHGDLIEITDAKKREALYAQ: the protein stability index amounted to 1.99.
For the variant FVIEYHGDLIEITDAKKREALYAQ, the protein stability index was 2.83.
Regarding FVWEYHGDLIEITDAKKREALYAQ, the protein stability index was 2.12.
To FVNEYHGDLIEITDAKKREALYAQ belongs 3.01; to FVMEYHGDLIEITDAKKREALYAQ, 2.64; to FVEEYHGDLIEITDAKKREALYAQ, 2.83.
As to FVPEYHGDLIEITDAKKREALYAQ, the protein stability index came out at 2.03.
Consider FVQEYHGDLIEITDAKKREALYAQ, for which the protein stability index came to 2.32.
In the case of FVLEYHGDLIEITDAKKREALYAQ, the protein stability index stood at 1.98.
To FVDEYHGDLIEITDAKKREALYAQ belongs 2.15; to FVKEYHGDLIEITDAKKREALYAQ, 2.36; to FVSEYHGDLIEITDAKKREALYAQ, 1.84.
With FVGEYHGDLIEITDAKKREALYAQ, the protein stability index is 3.07.
For FVREYHGDLIEITDAKKREALYAQ, the protein stability index turned out to be 2.02.
For the variant FVVEYHGTLIEITDAKKREALYAQ, the protein stability index was 1.45.
FVVEYHGALIEITDAKKREALYAQ: the protein stability index is 1.65.
On to FVVEYHGLLIEITDAKKREALYAQ, for which the protein stability index was 2.85.
Take FVVEYHGYLIEITDAKKREALYAQ: the protein stability index amounted to 1.84.
In the case of FVVEYHGELIEITDAKKREALYAQ, the protein stability index is 2.15.
For the variant FVVEYHGGLIEITDAKKREALYAQ, the protein stability index was 2.01.
The value for FVVEYHGNLIEITDAKKREALYAQ was 1.7; that for FVVEYHGMLIEITDAKKREALYAQ was 3.28; that for FVVEYHGKLIEITDAKKREALYAQ was 1.82.
As for FVVEYHGFLIEITDAKKREALYAQ, the protein stability index is 2.77.
The value for FVVEYHGPLIEITDAKKREALYAQ was 1.83; that for FVVEYHGQLIEITDAKKREALYAQ was 1.59; that for FVVEYHGHLIEITDAKKREALYAQ was 1.56.
The value for FVVEYHGSLIEITDAKKREALYAQ was 2.33; that for FVVEYHGVLIEITDAKKREALYAQ was 3.4.
As to FVVEYHGCLIEITDAKKREALYAQ, the protein stability index was 2.01.
As to FVVNYHGDLIEITDAKKREALYAQ, the protein stability index came out at 1.92.
In the case of FVVFYHGDLIEITDAKKREALYAQ, the protein stability index is 1.88.
As for FVVPYHGDLIEITDAKKREALYAQ, the protein stability index amounted to 1.84.
To FVVHYHGDLIEITDAKKREALYAQ belongs 1.6.
FVVWYHGDLIEITDAKKREALYAQ: the protein stability index was found to be 1.44.
To FVVQYHGDLIEITDAKKREALYAQ belongs 2.69; to FVVMYHGDLIEITDAKKREALYAQ, 1.67; to FVVYYHGDLIEITDAKKREALYAQ, 1.72.
The value for FVVGYHGDLIEITDAKKREALYAQ was 3.07; that for FVVDYHGDLIEITDAKKREALYAQ was 2.35.
As to FVVKYHGDLIEITDAKKREALYAQ, the protein stability index is 1.45.
As to FVVCYHGDLIEITDAKKREALYAQ, the protein stability index came to 1.82.
For FVVRYHGDLIEITDAKKREALYAQ, the protein stability index was determined as 1.97.
For FVVVYHGDLIEITDAKKREALYAQ, the protein stability index was 1.6.
To FVVTYHGDLIEITDAKKREALYAQ belongs 1.74; to FVVLYHGDLIEITDAKKREALYAQ, 2.61; to FVVIYHGDLIEITDAKKREALYAQ, 1.03.
On to FVVAYHGDLIEITDAKKREALYAQ, for which the protein stability index was 2.3.
For FVVSYHGDLIEITDAKKREALYAQ, the protein stability index was determined as 1.76.
For FVVEYNGDLIEITDAKKREALYAQ, the protein stability index amounted to 2.2.
In the case of FVVEYPGDLIEITDAKKREALYAQ, the protein stability index was determined as 2.
Turning to FVVEYKGDLIEITDAKKREALYAQ, the protein stability index came to 1.74.
The value for FVVEYWGDLIEITDAKKREALYAQ was 1.35.
With FVVEYYGDLIEITDAKKREALYAQ, the protein stability index turned out to be 2.16.
Regarding FVVEYIGDLIEITDAKKREALYAQ, the protein stability index was 2.19.
As to FVVEYMGDLIEITDAKKREALYAQ, the protein stability index stood at 2.04.
In the case of FVVEYFGDLIEITDAKKREALYAQ, the protein stability index is 2.12.
To FVVEYQGDLIEITDAKKREALYAQ belongs 2.06; to FVVEYAGDLIEITDAKKREALYAQ, 1.9; to FVVEYCGDLIEITDAKKREALYAQ, 3.73.
For the variant FVVEYSGDLIEITDAKKREALYAQ, the protein stability index was 2.31.
To FVVEYRGDLIEITDAKKREALYAQ belongs 2.18; to FVVEYGGDLIEITDAKKREALYAQ, 2.15.
Take FVVEYEGDLIEITDAKKREALYAQ: the protein stability index came to 2.88.
As to FVVEYLGDLIEITDAKKREALYAQ, the protein stability index stood at 2.02.
For FVVEYTGDLIEITDAKKREALYAQ, the protein stability index was determined as 1.76.
As for FVVEYDGDLIEITDAKKREALYAQ, the protein stability index was determined as 3.13.
